PMC9638937, “Structural and functional determinants of the archaeal 8-oxoguanine-DNA glycosylase AGOG for DNA damage recognition and processing”

Experiments:
Pab-AGOG K142Q = biological target: T1, Pab-AGOG K142Q (Pyrococcus abyssi, UniProt Q9UZY0 1-239, K142Q); experiment: X-ray structure; non-covalent, 1.25 A; EMSA: 0.1 nM 32P-DNA, 20 mM HEPES/NaOH pH 7.6, 100 mM NaCl, 10% glycerol, 0.1% BSA, 30 min at 4 C; 10% native PAGE at 4 C; settings: protein: recombinant; tags: N-terminal 6xHis (pET28a), removed by trypsin (as for WT)
T1 sequence: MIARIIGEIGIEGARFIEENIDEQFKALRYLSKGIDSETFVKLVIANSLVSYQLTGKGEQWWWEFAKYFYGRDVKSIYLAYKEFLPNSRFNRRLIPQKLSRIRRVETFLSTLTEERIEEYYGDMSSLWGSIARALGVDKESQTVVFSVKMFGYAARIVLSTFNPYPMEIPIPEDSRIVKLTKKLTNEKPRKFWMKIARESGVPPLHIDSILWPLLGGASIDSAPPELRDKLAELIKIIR

Pab-AGOG WT = biological target: T2, Pab-AGOG WT (Pyrococcus abyssi, UniProt Q9UZY0 1-239); experiment: X-ray structure; NaBH4-trapped covalent at K142; EMSA: 0.1 nM 32P-DNA, 20 mM HEPES/NaOH pH 7.6, 100 mM NaCl, 10% glycerol, 0.1% BSA, 30 min at 4 C; 10% native PAGE at 4 C; settings: protein: recombinant; tags: N-terminal 6xHis (pET28a), removed by trypsin at thrombin site
T2 sequence: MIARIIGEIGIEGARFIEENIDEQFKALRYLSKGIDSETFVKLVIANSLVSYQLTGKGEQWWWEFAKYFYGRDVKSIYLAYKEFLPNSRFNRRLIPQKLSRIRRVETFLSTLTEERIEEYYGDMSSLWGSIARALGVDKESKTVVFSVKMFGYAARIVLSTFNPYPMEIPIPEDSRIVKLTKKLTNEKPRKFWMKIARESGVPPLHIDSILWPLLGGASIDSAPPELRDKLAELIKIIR

B1: 9-mer GO:C duplex (dsDNA)
DNA 1: TTTGTTTCT
DNA 2: AGAAACAAA
modifications: 8-oxoguanine at position 4 (opposite C6*)
B1: binds (Pab-AGOG K142Q).

B2: 9-mer trapped AP strand with 9-mer A (dsDNA)
DNA 1: TTTGTTTCT
DNA 2: AGAAAAAAA
modifications: ring-open AP site from GO, borohydride-trapped, opposite A
B2: binds (Pab-AGOG WT).

B3: 9-mer trapped AP strand with 9-mer T (dsDNA)
DNA 1: TTTGTTTCT
DNA 2: AGAAATAAA
modifications: ring-open AP site from GO, borohydride-trapped, opposite T
B3: binds (Pab-AGOG WT).
